Measurements taken from article PMC4439613, “TRIP13 is a protein-remodeling AAA+ ATPase that catalyzes MAD2 conformation switching” (eLife, 2015).
Each block holds one molecule with its values, some of them ahead of it.

How the values were obtained:
PCH-2 = molecular target: T1, PCH-2 (Caenorhabditis elegans, UniProt Q09535); assay: X-ray crystal structure, […] Å; type: binding; settings: ATPase active site of chains B and E; ADP co-purified, no nucleotide added
T1 construct: full-length (424 residues), N-terminal His6 tag removed with TEV protease, E. coli Rosetta 2 (DE3) pLysS
T1 sequence (Q09535 1-424): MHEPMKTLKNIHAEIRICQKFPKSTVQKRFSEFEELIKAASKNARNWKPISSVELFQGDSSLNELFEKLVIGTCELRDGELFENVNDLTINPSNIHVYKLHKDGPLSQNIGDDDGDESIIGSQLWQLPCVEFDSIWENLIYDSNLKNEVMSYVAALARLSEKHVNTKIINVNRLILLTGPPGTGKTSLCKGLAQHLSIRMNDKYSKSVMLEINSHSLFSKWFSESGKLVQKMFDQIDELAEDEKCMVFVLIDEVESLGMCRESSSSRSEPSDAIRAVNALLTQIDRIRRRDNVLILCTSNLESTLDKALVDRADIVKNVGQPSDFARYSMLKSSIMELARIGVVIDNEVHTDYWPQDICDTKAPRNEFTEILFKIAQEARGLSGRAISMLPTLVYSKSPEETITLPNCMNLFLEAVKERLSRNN

M. musculus TRIP13^E253Q [1] = molecular target: T2, M. musculus TRIP13^E253Q (M. musculus, UniProt Q3UA06 1-432, E253Q); assay: SEC; equimolar (10 nanomoles each) TRIP13^E253Q, p31(comet) and C-MAD2^R133A in 300 μl, 20 mM Tris-HCl pH 7.5, 300 mM NaCl, 2 mM ATP, on ice 30 min; Superdex 200 Increase 10/300 GL with 0.1 mM ATP; Coomassie gels of fractions; settings: both partners purified
T2 construct: TRIP13, M. musculus, full length, Walker B mutation E253Q; also called Walker B mutant; ATP hydrolysis-defective TRIP13; source: E. coli Rosetta 2 (DE3) pLysS, purified (Ni-NTA, Hitrap Q ion exchange, Superdex 200 SEC); not shown: His6, N-terminal, cleaved
T2 sequence (looked up): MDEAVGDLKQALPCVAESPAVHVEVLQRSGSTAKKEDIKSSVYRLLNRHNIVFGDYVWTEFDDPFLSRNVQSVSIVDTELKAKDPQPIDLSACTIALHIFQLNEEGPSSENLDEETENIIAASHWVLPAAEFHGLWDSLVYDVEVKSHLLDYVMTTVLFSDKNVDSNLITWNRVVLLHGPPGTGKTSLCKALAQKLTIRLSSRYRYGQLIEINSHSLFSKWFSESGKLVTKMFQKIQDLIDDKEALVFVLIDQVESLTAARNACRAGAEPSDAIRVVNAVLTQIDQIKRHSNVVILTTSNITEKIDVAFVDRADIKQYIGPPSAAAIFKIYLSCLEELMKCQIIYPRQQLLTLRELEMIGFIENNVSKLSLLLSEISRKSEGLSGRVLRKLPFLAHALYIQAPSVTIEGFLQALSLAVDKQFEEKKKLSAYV

M. musculus TRIP13^E253Q [2] = molecular target: T2, M. musculus TRIP13^E253Q; assay: SEC-MALS; TRIP13^E253Q with p31(comet) and C-MAD2^R133A, protocol as for the size exclusion analysis; settings: both partners purified

Molecule: Nc1ncnc2c1ncn2[C@@H]1O[C@H](COP(=O)(O)OP(=O)(O)O)[C@@H](O)[C@H]1O [ADP]
X-ray crystal structure, 2.3 Å (PCH-2): two subunits in the hexamer (chains B and E) are bound to ADP

stoichiometry N (M. musculus TRIP13^E253Q [1]): ~6 TRIP13^E253Q : p31(comet):MAD2 (molar ratio)
stoichiometry N (M. musculus TRIP13^E253Q [2]): ~1 copy per TRIP13 hexamer
B1: M. musculus p31(comet):C-MAD2^R133A complex (complex)
chain 1: MAASGEEDMSELSPAAAPNLDWYEKPEETHAPEVDLETVIPPAQEPSNPAEPFCPRDLVPVVFPGPVSQEDCCQFTCELLKHILYQRHQLPLPYEQLKHFYRKVPQAEDTARKKAWLATEARNRKCQQALAELESVLSHLRDFFARTLVPQVLILLGGNALSPKEFYELDLSRLAPFGVDQGLNTAACLRRLFRAIFLADPFSELQTPPLMGTIVMVQGHRDCGEDWFQPKLNYRVPSRGHKLTVTLSCGRPSVPAMASEDYIWFQAPVTLKGFHE
chain 2: MAQQLAREQGITLRGSAEIVAEFFSFGINSILYQRGIYPSETFTRVQKYGLTLLTTTDPELIKYLNNVVEQLKEWLYKCSVQKLVVVISNIESGEVLERWQFDIECDKTAKEEGVRREKSQKAIQDEIRSVIAQITATVTFLPLLEVSCSFDLLIYTDKDLVVPEKWEESGPQFITNCEEVRLRSFTTTIHKVNSMVAYKTPVND
notes: p31(comet), M. musculus, full length; MAD2, M. musculus, full length, R133A, closed conformer; Heterodimer of m12 and m9; also called p31(comet):MAD2; source: formed from separately purified proteins (E. coli Rosetta 2 (DE3) pLysS); not shown: His6, N-terminal, cleaved; copies: 1 + 1
